For data set [1], the system named is Immunoglobulin G (total IgG) (Homo sapiens). The experiment in a line: filter.
Data set [2] concerns IgG3-Fc (Homo sapiens), P01860-1. The experiment in a line: filter. To be noted: n (P) = NapdU; Zorbax, SB18, 37 C.
Data set [3] relates to IgG1-Fc (Homo sapiens), P01857-1. The experiment in a line: filter. To be noted: n (P) = NapdU; Zorbax, SB18, 37 C.
Data set [4] concerns β-FGFR fusion (Fc fusion protein) (Homo sapiens). The experiment in a line: filter. To be noted: Zorbax, SB18, 37 C.
For data set [5], the system named is IgA (Homo sapiens). The experiment in a line: filter. To be noted: Zorbax, SB18, 37 C.
Data set [6] deals with IgM (Homo sapiens). The experiment in a line: filter. To be noted: Zorbax, SB18, 37 C.
Data set [7] deals with Immunoglobulin G (total IgG). The experiment in a line: pulldown.
For data set [8], the system named is IgG3-Kappa (Homo sapiens), P01860-1+P01834. The experiment in a line: pulldown. To be noted: Protein L beads, SB17, 37 C.
Data set [9] concerns IgG4-Kappa (Homo sapiens), P01861-1+P01834. The experiment in a line: pulldown. To be noted: Protein L beads, SB17, 37 C.
Data set [10] relates to IgG1-Kappa (Homo sapiens), P01857-1+P01834. The experiment in a line: pulldown. To be noted: Protein L beads, SB17, 37 C.
For data set [11], the system named is Total IgG (monkey) (monkey). The experiment in a line: filter. To be noted: n (P) = 2NapdU; Zorbax, SB18, 37 C.
Data set [12] relates to IgD (Homo sapiens). The experiment in a line: filter. To be noted: n (P) = 2NapdU; Zorbax, SB18, 37 C.
The test system of data set [13] is Total IgG (rabbit) (Oryctolagus cuniculus). The experiment in a line: filter. To be noted: n (P) = 2NapdU; Zorbax, SB18, 37 C.
[14] abbreviates: n (P) = NapdU, SB18, 5 mM MgCl2, 37 C.
[15] abbreviates: n (P) = 2NapdU, SB18, 5 mM MgCl2, 37 C.
The mark [16] stands for this setting: n (P) = 2NapdU, considered no binding.
The mark [17] stands for this setting: n (P) = NapdU, considered no binding.

Sequence of IgG4-Kappa (Homo sapiens), P01861-1+P01834 (P01861 other isoform, or with tags, fused parts or gaps, chain 1 of 2, other chains not shown): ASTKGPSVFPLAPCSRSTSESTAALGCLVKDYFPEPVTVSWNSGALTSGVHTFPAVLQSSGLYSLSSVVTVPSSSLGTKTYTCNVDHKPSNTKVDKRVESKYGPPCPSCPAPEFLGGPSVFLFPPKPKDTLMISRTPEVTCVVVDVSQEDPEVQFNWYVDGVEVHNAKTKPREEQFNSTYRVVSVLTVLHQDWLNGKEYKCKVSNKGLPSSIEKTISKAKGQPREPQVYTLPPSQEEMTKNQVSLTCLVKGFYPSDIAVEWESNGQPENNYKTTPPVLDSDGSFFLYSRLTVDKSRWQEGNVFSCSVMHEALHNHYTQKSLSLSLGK
Sequence of IgG3-Kappa (Homo sapiens), P01860-1+P01834 (P01860 other isoform, or with tags, fused parts or gaps, chain 1 of 2, other chains not shown): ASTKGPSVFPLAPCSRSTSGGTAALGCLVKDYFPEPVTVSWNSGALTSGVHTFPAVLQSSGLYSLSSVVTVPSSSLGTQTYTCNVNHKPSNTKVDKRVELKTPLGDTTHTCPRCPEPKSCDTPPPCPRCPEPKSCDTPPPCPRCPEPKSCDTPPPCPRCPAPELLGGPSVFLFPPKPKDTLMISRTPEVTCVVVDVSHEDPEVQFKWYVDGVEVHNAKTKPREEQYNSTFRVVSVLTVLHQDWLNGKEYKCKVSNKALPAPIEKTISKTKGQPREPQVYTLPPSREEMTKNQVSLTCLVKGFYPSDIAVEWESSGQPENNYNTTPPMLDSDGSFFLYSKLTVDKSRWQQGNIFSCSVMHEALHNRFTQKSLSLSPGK
Sequence of IgG3-Fc (Homo sapiens), P01860-1 (P01860 other isoform, or with tags, fused parts or gaps): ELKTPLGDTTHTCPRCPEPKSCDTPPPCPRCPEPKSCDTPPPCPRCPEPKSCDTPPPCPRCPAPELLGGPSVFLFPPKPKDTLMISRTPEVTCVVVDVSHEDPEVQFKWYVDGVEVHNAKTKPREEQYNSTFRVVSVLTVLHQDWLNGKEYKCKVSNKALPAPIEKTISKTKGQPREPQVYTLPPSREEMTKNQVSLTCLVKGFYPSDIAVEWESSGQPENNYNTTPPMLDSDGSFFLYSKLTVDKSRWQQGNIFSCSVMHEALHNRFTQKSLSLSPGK

In turn, “ATGGCGAACTCCCTGAATGCTCTTGTCTTA [14125-144_25]” yielded a dissociation constant (Kd) in data set [1] (setting [14]) of 7.55 nM. For “ATGGCGAACTCCCTGAATGCTCTTGTCTTAA [14125-144_21]”, the Kd in data set [1] (setting [14]) came to 5.5 nM. “CAAGACTGCGGTTACCTTGTAGGCGATTATGGGCAG [5334-8_10]” displayed a Kd in data set [1] (setting [15]) of 5.38 nM. In data set [1] (setting [15]), “CACATCCAAGACTGCGGTTACCTTGTAGGCGATTATGGGCAG [5334-8_7]” came in with a Kd of 5.89 nM. Same read-out and setting: as for “CATCCAAGACTGCGGTTACCTTGTAGGCGATTATGGGCAG [5334-8_8]”, the figure is 9.69 nM. On to “CCTCCATACGGTACGATTTTCAGTTGGATCCAGTACCTGGCTGGAGAGAA [5406-56_3]”, for which the Kd in data set [2] was found to be 400 nM; in data set [3], 2 nM; in [4] (n (P) = NapdU), 3 nM; in data set [5] (n (P) = NapdU) it was 200 nM; in [6] (n (P) = NapdU), 100 nM; in [7] (P = NapdU at all n positions, SB18, 5 mM MgCl2, 37C, bead partitioning, 4.54 nM in Table 2), 3.13 nM. Moreover, the Kd came out at 80 nM in data set [8] (n (P) = NapdU), 20 nM in data set [9] (n (P) = NapdU) and 2 nM in data set [10] (n (P) = NapdU). Turning to “CGGCACTCCACATCCAAGACTGCGGTTACCTTGTAG [5334-8_18]”, the Kd in data set [1] (setting [16]) was greater than 1000 nM. For the sequence “CGGCACTCCACATCCAAGACTGCGGTTACCTTGTAGGC [5334-8_17]”, in data set [1] (setting [16]), the dissociation constant (Kd) is greater than 1000 nM.

Turning to “CGGCACTCCACATCCAAGACTGCGGTTACCTTGTAGGCGA [5334-8_16]”, the Kd in data set [1] (setting [16]) is greater than 1000 nM. “CGGCACTCCACATCCAAGACTGCGGTTACCTTGTAGGCGATTAT [5334-8_14]” showed a Kd in data set [1] (setting [16]) greater than 1000 nM.

“CGGCACTCCACATCCAAGACTGCGGTTACCTTGTAGGCGATTATGGGCAG [5334-8_3]”: the dissociation constant (Kd) in [11] worked out at 20 nM; in data set [4] (n (P) = 2NapdU), 9 nM; in data set [5] (n (P) = 2NapdU), 200 nM; in data set [6] (n (P) = 2NapdU), 100 nM; in data set [12], 600 nM; in data set [13] it was 20 nM. Besides, the Kd is 7.52 nM in data set [7] (P = 2NapdU at all n positions, SB18, 37C, 12.2 nM in Table 4); 7 nM in data set [8] (n (P) = 2NapdU); 10 nM in data set [9] (n (P) = 2NapdU); 40 nM in [10] (n (P) = 2NapdU).

Sequence “CGGTACGATTTTCAGTTGGATCCAGTAC [5406-56_47]” showed a Kd in [1] (setting [14]) of 5.7 nM. The same measure, in the same setting: next, “CGGTACGATTTTCAGTTGGATCCAGTACCT [5406-56_35]”: 3.42 nM; “CGGTACGATTTTCAGTTGGATCCAGTACCTG [5406-56_29]”: 3.49 nM. “CGGTACGATTTTCAGTTGGATCCAGTACCTGG [5406-56_23]” registered a Kd in data set [1] (n (P) = NapdU, SB18, 5 mM MgCl2, 37 C, sequence identical to _21 to _25) of 5.48 nM.

With “CTGCACGATGGCGAACTCCCTGAATGCTCTTGTCTTAAGTCCCCAACA [14125-144_4]”, the Kd in [1] (setting [14]) was determined as 10.5 nM. As for “GACTGCGGTTACCTTGTAGGCGATTATGGGCAG [5334-8_21]”, the dissociation constant Kd in data set [1] (setting [15]) turned out to be 6.77 nM. “GATGGCGAACTCCCTGAATGCTCTTGTC [14125-144_36]” yielded a Kd in [1] (setting [17]) greater than 1000 nM. Same read-out and setting: next, “GATGGCGAACTCCCTGAATGCTCTTGTCT [14125-144_32]”: greater than 1000 nM. “GATGGCGAACTCCCTGAATGCTCTTGTCTT [14125-144_28]” came in with a dissociation constant Kd in data set [1] (setting [14]) of 17.2 nM. On to “GATGGCGAACTCCCTGAATGCTCTTGTCTTA [14125-144_24]”, for which, in data set [1] (setting [14]), the Kd stood at 9.89 nM. The same measure, in the same setting: as for “GATGGCGAACTCCCTGAATGCTCTTGTCTTAA [14125-144_20]”, the figure is 6.67 nM; as for “GATGGCGAACTCCCTGAATGCTCTTGTCTTAAGTCCCCAACA [14125-144_7]”, 6.96 nM.

As a reminder, the Kd is the constant that tells how readily two partners part at equilibrium. A high value points to lower affinity.

(Values after patent publication US20210317456.)
